Test results from publication PMC3070544 (Structure (London, England : 1993), 2011).

Target: the molecule itself
Experiment: AUC

B1: mouse E-cadherin EC1-5 ectodomain, wild type (domain or fragment)
chain: DWVIPPISCPENEKGEFPKNLVQIKSNRDKETKVFYSITGQGADKPPVGVFIIERETGWLKVTQPLDREAIAKYILYSHAVSSNGEAVEDPMEIVITVTDQNDNRPEFTQEVFEGSVAEGAVPGTSVMKVSATDADDDVNTYNAAIAYTIVSQDPELPHKNMFTVNRDTGVISVLTSGLDRESYPTYTLVVQAADLQGEGLSTTAKAVITVKDINDNAPVFNPSTYQGQVPENEVNARIATLKVTDDDAPNTPAWKAVYTVVNDPDQQFVVVTDPTTNDGILKTAKGLDFEAKQQYILHVRVENEEPFEGSLVPSTATVTVDVVDVNEAPIFMPAERRVEVPEDFGVGQEITSYTAREPDTFMDQKITYRIWRDTANWLEINPETGAIFTRAEMDREDAEHVKNSTYVALIIATDDGSPIATGTGTLLLVLLDVNDNAPIPEPRNMQFCQRNPQPHIITILDPDLPPNTSPFTAELTHGASVNWTIEYNDAAQESLILQPRKDLEIGEYKIHLKLADNQNKDQVTTLDVHVCDCEGTVNNCMKA
modifications: O-linked glycosylation observed in the structure
Work on B1 yielded a Kd of ~100 µM.
